Blank lines part the entries; values can stand above or below the molecule they belong to. Bridge positions count the residues as written; N and C are the ends.
What was measured:
[1] = system: CEA-mediated intercellular adhesion; conditions: from references (29) and (16); cited from earlier work
CEA mutant Q80R (human) = CEA mutant Q80R (human) (UniProt P06731); assay: cell-based or functional assay
CEA mutant D82N (human) = CEA mutant D82N (human) (UniProt P06731); assay: cell-based or functional assay
[2] = biological target: CEA double mutant Q44R+I46V (human) (UniProt P06731); assay: cell-based or functional assay
[3] = biological target: T1, human carcinoembryonic antigen (CEA), wild type (human, UniProt P06731 35-685, GPI membrane anchor); assay: cell-based or functional assay
T1 sequence (looked up): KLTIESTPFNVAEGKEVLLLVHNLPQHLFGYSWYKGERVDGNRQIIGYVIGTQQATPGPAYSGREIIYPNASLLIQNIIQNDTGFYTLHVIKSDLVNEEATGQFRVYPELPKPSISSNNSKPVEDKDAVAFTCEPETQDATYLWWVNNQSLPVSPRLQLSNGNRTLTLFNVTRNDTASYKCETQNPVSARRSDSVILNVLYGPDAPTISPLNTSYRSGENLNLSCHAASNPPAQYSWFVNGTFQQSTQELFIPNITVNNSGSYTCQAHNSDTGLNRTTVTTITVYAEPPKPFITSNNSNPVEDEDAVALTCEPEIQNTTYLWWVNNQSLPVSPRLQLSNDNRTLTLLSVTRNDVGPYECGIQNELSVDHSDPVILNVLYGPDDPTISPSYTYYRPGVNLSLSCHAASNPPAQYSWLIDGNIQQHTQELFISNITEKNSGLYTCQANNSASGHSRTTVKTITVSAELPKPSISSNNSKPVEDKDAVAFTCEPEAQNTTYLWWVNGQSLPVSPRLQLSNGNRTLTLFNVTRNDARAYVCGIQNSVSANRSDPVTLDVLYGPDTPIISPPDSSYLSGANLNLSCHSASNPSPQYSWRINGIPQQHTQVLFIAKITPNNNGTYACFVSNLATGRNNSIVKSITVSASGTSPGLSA

Molecule: H-CQNDTGC-OH (disulfide 1-7; SMILES C[C@@H](O)[C@@H]1NC(=O)[C@H](CC(=O)O)NC(=O)[C@H](CC(N)=O)NC(=O)[C@H](CCC(N)=O)NC(=O)[C@@H](N)CSSC[C@@H](C(=O)O)NC(=O)CNC1=O) [cyclized peptide QNDTG, cyclized peptide representing subdomain 3 of the CEA N domain]
inhibition of CEA-mediated intercellular adhesion [1]: effective in inhibiting CEA-mediated intercellular adhesion

degree of differentiation of L6 transfectants (CEA mutant Q80R (human)): 81%
Molecule: CEA mutant Q80R (from UniProt P06731 35-702)

degree of differentiation of L6 transfectants (CEA mutant D82N (human)): 100%
Molecule: CEA mutant D82N (from UniProt P06731 35-702)

degree of differentiation of L6 transfectants [2]: 100%
Molecule: CEA double mutant Q44R+I46V (from UniProt P06731 35-702)

% fusion of L6(CEA) cells (release of the myogenic differentiation block), peptide at 100 µM [3]: 36%
B1: cyclized peptide H-CQNDTGC-OH (subdomain 3) (peptide)
peptide: H-CQNDTGC-OH
modifications: disulfide 1-7
SMILES: C[C@@H](O)[C@@H]1NC(=O)[C@H](CC(=O)O)NC(=O)[C@H](CC(N)=O)NC(=O)[C@H](CCC(N)=O)NC(=O)[C@@H](N)CSSC[C@@H](C(=O)O)NC(=O)CNC1=O

% fusion of L6(CEA) cells (release of the myogenic differentiation block), peptide at 100 µM [3]: 18%
B2: cyclized peptide H-CGYSWYKC-OH (subdomain 1) (peptide)
peptide: H-CGYSWYKC-OH
modifications: disulfide 1-8
SMILES: NCCCC[C@@H]1NC(=O)[C@H](Cc2ccc(O)cc2)NC(=O)[C@H](Cc2c[nH]c3ccccc23)NC(=O)[C@H](CO)NC(=O)[C@H](Cc2ccc(O)cc2)NC(=O)CNC(=O)[C@@H](N)CSSC[C@@H](C(=O)O)NC1=O

% fusion of L6(CEA) cells (release of the myogenic differentiation block), peptide at 100 µM [3]: 28%
B3: cyclized peptide H-CGNRQIIC-OH (subdomain 2) (peptide)
peptide: H-CGNRQIIC-OH
modifications: disulfide 1-8
SMILES: CC[C@H](C)[C@@H]1NC(=O)[C@H](CCC(N)=O)NC(=O)[C@H](CCCNC(=N)N)NC(=O)[C@H](CC(N)=O)NC(=O)CNC(=O)[C@@H](N)CSSC[C@@H](C(=O)O)NC(=O)[C@H]([C@@H](C)CC)NC1=O
